Article PMC4773420 (Nature Communications, 2016)

B1: BTG2(APRO) (domain or fragment, human, UniProt P78543 1-126, looked up)
chain: MSHGKGTDMLPEIAAAVGFLSSLLRTRGCVSEQRLKVFSGALQEALTEHYKHHWFPEKPSKGSGYRCIRINHKMDPIISRVASQIGLSQPQLHQLLPSELTLWVDPYEVSYRIGEDGSICVLYEEA
notes: BTG2, human, APRO domain; also called BTG2 APRO domain, GST removed; source: E. coli BL21-CodonPlus, purified (GSTrap FF, thrombin cleavage, Superdex 75)
B2: 5'Fluo-poly(A)75 (ssRNA)
RNA: AAAAAAAAAAAAAAAAAAAAAAAAAAAAAAAAAAAAAAAAAAAAAAAAAAAAAAAAAAAAAAAAAAAAAAAAAAA

Columns and labels:
[1] = target: T1, 6His-PABPC1(1–190) (human, UniProt P11940 1-190); assay: AUC; analytical ultracentrifugation of BTG2(APRO) (GST removed) and 6His-PABPC1(1–190), both purified to homogeneity; no RNA (Supplementary Fig. 2); conditions: both partners purified
T1 construct: PABPC1, human, RRM domains 1 and 2, amino acids 1-190; also called 6His-tagged PABPC1 RRM domains 1 and 2; first two RRMs of PABPC1; source: E. coli BL21-CodonPlus; co-expressed, in lysate (pull-down); purified (HisTrap FF crude, Superdex 75)

[2] = target: 6His-PABPC1(1-190) (human, UniProt P11940 1-190); assay: EMSA; 100 nM RNA; complete shift at 7 pmol protein per 1 pmol RNA; EMSA: 100 nM 5'-fluorescein RNA, native PAGE; EMSA buffer not in the material (deadenylation assays: 20 mM HEPES-KOH pH 8.0, 100 mM KCl, 0.5 mM DTT, 0.1% Igepal)
[3] = target: 6His-PABPC1(FL) (human, UniProt P11940 1-636); assay: EMSA; 100 nM RNA; complete shift at 7 pmol protein per 1 pmol RNA; multiple PABPC1 molecules bound; EMSA: 100 nM 5'-fluorescein RNA, native PAGE; EMSA buffer not in the material (deadenylation assays: 20 mM HEPES-KOH pH 8.0, 100 mM KCl, 0.5 mM DTT, 0.1% Igepal)
Chain of 6His-PABPC1(FL) (P11940 whole entry): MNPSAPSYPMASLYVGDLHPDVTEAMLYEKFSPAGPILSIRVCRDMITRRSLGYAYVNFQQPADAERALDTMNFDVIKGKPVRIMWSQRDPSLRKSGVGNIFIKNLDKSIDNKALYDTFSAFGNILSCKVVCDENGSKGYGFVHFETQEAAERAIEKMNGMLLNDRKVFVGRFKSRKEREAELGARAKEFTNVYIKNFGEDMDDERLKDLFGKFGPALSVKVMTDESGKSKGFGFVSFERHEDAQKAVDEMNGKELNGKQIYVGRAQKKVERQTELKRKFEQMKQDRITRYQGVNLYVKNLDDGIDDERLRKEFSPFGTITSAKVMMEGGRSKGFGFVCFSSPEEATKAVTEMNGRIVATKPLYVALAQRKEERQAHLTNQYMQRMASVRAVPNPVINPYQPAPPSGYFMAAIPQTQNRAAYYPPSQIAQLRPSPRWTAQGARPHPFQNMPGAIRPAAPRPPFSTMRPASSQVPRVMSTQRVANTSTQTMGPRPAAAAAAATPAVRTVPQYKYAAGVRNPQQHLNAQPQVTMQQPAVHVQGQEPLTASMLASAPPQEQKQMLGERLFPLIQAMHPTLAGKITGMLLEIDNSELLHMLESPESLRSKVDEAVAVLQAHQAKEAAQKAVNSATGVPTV

T1 sequence (P11940 1-190): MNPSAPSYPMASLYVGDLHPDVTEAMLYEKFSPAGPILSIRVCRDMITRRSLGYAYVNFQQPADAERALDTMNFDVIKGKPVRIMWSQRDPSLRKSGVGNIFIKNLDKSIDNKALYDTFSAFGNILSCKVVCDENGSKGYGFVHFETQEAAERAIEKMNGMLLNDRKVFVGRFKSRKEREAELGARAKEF
Chain of 6His-PABPC1(1-190) (P11940 1-190): as above

Binder | Kd [1] [µM] | stoichiometry N [1] | binding result [2] | binding result [3]
B1 | ~5 | 1 |  | 
B2 |  |  | binds | binds
